The values below come from the supplement of paper PMC10201428.

± gives the standard deviation of the averaged measurements.

This data set has as its system VchCAST RNA-guided transposition machinery (E. coli BL21(DE3) host, lacZ target). Kind of data set: relative integration efficiency (T-RL orientation) vs wild-type transposon end (log2 (normalized fold change)); transposon end mutated: right end (5 bp flank + 75 bp right end); higher = more efficient transposition. The essentials: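 Co-transformation of E. coli BL21(DE3) combined a pUC57 mini-transposon donor, holding barcoded pools of 1549 left-end or 1849 right-end variants, with a T7-driven plasmid encoding a CRISPR array, tniQ-cas8-cas7-cas6 and tnsA-tnsB-tnsC. After plating with 0.1 mM IPTG at 37°C for 18 h, input plasmids and genomic integration junctions were PCR-amplified and Illumina-sequenced across two biological output replicates, with four reference barcodes. Relative integration efficiency is the normalised, log-transformed output/input barcode fold change.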
For the sequence “ACATTTGTTGATACAACCATAAAATGATAATTACACCCATAAATTGATAATTATCACACCCATAAATTGATATTGCAGAGGATCATAGTCAGACCAACATTGCTACGACCCGTATTCGCACCGACAC”, the “relative integration efficiency (log2)” value came out at 0.0202 ± 0.033.

Consider “ACATTTGCTGATACAACCATATAATGATAATAACACCCATAAAATGATAATTATCACACCCAATTTAACTATAACGCTCTGATCATAGTCAGACCAACATTGCTACGACCCGTATTCGCACCGACAC”, for which the “relative integration efficiency (log2)” value was -2.08 ± 0.55.

For “ACATTTGTTGATACCACCATAAAATGGTAATTACACCCATAAATTGATAATTATCACACCCAATTTAACTATAACGCTCTGATCATAGTCAGACCAACATTGCTACGACCCGTATTCGCACCGACAC”, the “relative integration efficiency (log2)” value is -1.38 ± 0.13.

With “ACATTTGTTGATACAACCATATATTGATATCTCCAACCATAAAGTGATATTTATCACACCCATAAATTGATATTGCCTCTGATCATAGTCAGACCAACATTGCTACGACCCGTATTCGCACCGACAC”, the “relative integration efficiency (log2)” value is -0.42 ± 0.096.

Take “ACATTTGTTGATACAACCATAAAATGATAATTACTCTGCACCCATAAATTGATAATTATCACACCCATAAATTGATATTGCATCATAGTCAGACCAACATTGCTACGACCCGTATTCGCACCGACAC”: the “relative integration efficiency (log2)” value was -3.62 ± 0.15.

Turning to “ACATTTGTTGATACAACCATAAAATGATAATTACACCCATAAATTGATAATTACACCCATAAATTGATATTGCCTCTGATCATAGTCAGACCAACATTGCTACGACCCGTATTCGCACCGACACTGA”, the “relative integration efficiency (log2)” value is -0.821 ± 0.28.

Regarding “ACATTTGTTGATACAACCATATATTGATATCTCCAACCATATATTGATATCTCTCACACCCATAAATTGATAATTACTCTGATCATAGTCAGACCAACATTGCTACGACCCGTATTCGCACCGACAC”, the “relative integration efficiency (log2)” value was -0.357 ± 0.067.

As for “ACATTTGTTGCGCAAACCATAAAATGATAATTACACCCATAAATTGATAATTATCACACCCATAAATTGATATTGCCTCTGATCATAGTCAGACCAACATTGCTACGACCCGTATTCGCACCGACAC”, the “relative integration efficiency (log2)” value was -0.839 ± 0.087.

For “ACATTTGTTGATACAACCATAAAATGATAATTACACCCATAAATTGATAATTATCACACCCATAAATTGATATTGCCTCTGATCAGGAATTGTGAGCGGATAACAATTTAGTCAGACGCACCGACAC”, the “relative integration efficiency (log2)” value was found to be 0.138 ± 0.16.

“ACATTTGTTGATACAACCATAAAATGTATTAATCACCCATAAATTGTATTAATTCACACCCATAAATTGTATAACGCTCTGATCATAGTCAGACCAACATTGCTACGACCCGTATTCGCACCGACAC”: the “relative integration efficiency (log2)” value is -4.24 ± 0.14.

As for “ACATTTGTTGATACACCCATAAATTGATAATTACACCCATAAATTGATAATTATCACACCCATAAATTGATATTGCCTCTGATCATAGTCAGACCAACATTGCTACGACCCGTATTCGCACCGACAC”, the “relative integration efficiency (log2)” value was -0.116 ± 0.036.

On to “ACATTTGTTGATACAACCATAAAATGATAATTACAAAACTAAATTGATAATTATCACACCCATAAATTGATATTGCCTCTGATCATAGTCAGACCAACATTGCTACGACCCGTATTCGCACCGACAC”, for which the “relative integration efficiency (log2)” value is -2.29 ± 0.15.

Regarding “ACATTTGTTGATACAACCATTTTTTGATAATTACACCCATAAATTGATAATTATCACACCCATAAATTGATATTGCCTCTGATCATAGTCAGACCAACATTGCTACGACCCGTATTCGCACCGACAC”, the “relative integration efficiency (log2)” value is -0.627 ± 0.016.

With “ACATTTGTTGATACAACCATAAAATGATAATTACTCTGATCATAGTCAGACCAACATTGCTACGACCCGTATTCGCACCGACACAACGCACCCATAAATTGATAATTATCAGTGGGTATTTAACTAT”, the “relative integration efficiency (log2)” value was -1.4 ± 0.054.

Consider “ACATTTGTTGATACAACCATAAGTTGATATTTTCAACCATAAAGTGATATTTATCACAACCATAAGTTGATATTTTCTCTGATCATAGTCAGACCAACATTGCTACGACCCGTATTCGCACCGACAC”, for which the “relative integration efficiency (log2)” value came to 0.119 ± 0.067.

In the case of “ACATTTGTTGATAACCAACGCCCCGTCGCCGGCCACCCATAAATTGATAATTATCAACAAACGCCCGGTCGCGGTACTCTGATCATAGTCAGACCAACATTGCTACGACCCGTATTCGCACCGACAC”, the “relative integration efficiency (log2)” value was -7.3 ± 0.31.

With “ACATTTGTTGATACAACCATAAAAGGATAATTACACCCATAAATTGATAATTATCCCACCCAATTTAACTATAACGCTCTGATCATAGTCAGACCAACATTGCTACGACCCGTATTCGCACCGACAC”, the “relative integration efficiency (log2)” value was -0.818 ± 0.21.

Take “ACATTTGTTGATACAACCATTAAATGATAATTCCACCCATAACTTGATAATTATCACACCCAATTTAACTATAACGCTCTGATCATAGTCAGACCAACATTGCTACGACCCGTATTCGCACCGACAC”: the “relative integration efficiency (log2)” value was -1.14 ± 0.15.

Turning to “ACATTTGTTGATACAACCATAAAATGATAATAACACCCATAAAATGATAATTATCACACCCAATTTAACTATAACGCTCTGATCATAGTCAGACCAACATTGCTACGACCCGTATTCGCACCGACAC”, the “relative integration efficiency (log2)” value was -0.0962 ± 0.22.

Take “ACATTTGTCGATACAACCATAAAATGATAATTACCACCCATAAATTGATAATTATCACACCCATTTAACTATAACGCTCTGATCATAGTCAGACCAACATTGCTACGACCCGTATTCGCACCGACAC”: the “relative integration efficiency (log2)” value is -1.12 ± 0.076.

Regarding “ACATTTGTTGATACAACCATAAAATGATAATTACACCCATAAATTGATAATGCTCACACCCATAAATTGATATTGCCTCTGATCATAGTCAGACCAACATTGCTACGACCCGTATTCGCACCGACAC”, the “relative integration efficiency (log2)” value is -0.488 ± 0.1.

Regarding “ACATTTGTTGATACAACCATAAAAAGATAATTACACCCATAAATTGATAATAATGACACCGAATTTAACTATAACGCTCTGATCATAGTCAGACCAACATTGCTACGACCCGTATTCGCACCGACAC”, the “relative integration efficiency (log2)” value was -1 ± 0.49.

“ACATTTGTTGATACAACCATAAAATGATAATTAATAATTATTTATAATCAGCAACTTAACCCACCCATAAATTGATAATTATCACACCCATAAATTGATATTGCCTCTGATCATAGTCAGACCAACA”: the “relative integration efficiency (log2)” value is -3.06 ± 0.43.

Regarding “ACATTTCTTGATACAACCATAAAATGATAATTACACCCATAAATTCATAATTATCACACCCAATTTAACTATAACGCTCTGATCATAGTCAGACCAACATTGCTACGACCCGTATTCGCACCGACAC”, the “relative integration efficiency (log2)” value was -2.79 ± 0.24.

With “ACATTTGTTGATACAACCATAAAATGATAATTACACCCATAAATTGAGCATTATCACACCCATAAATTGATATTGCCTCTGATCATAGTCAGACCAACATTGCTACGACCCGTATTCGCACCGACAC”, the “relative integration efficiency (log2)” value was -0.525 ± 0.0063.

“ACATTTGTTGATACAACCATAAAATGATAATTACACCCATCAATTGATAATTATCCCACCCCATTTAACTATAACGCTCTGATCATAGTCAGACCAACATTGCTACGACCCGTATTCGCACCGACAC”: the “relative integration efficiency (log2)” value was -2.54 ± 0.3.

For “ACATTTCTTGATACAACCATAAAATGATAATTACACCCATAAATTCATCATTATCACACCCAATTTAACTATAACGCTCTGATCATAGTCAGACCAACATTGCTACGACCCGTATTCGCACCGACAC”, the “relative integration efficiency (log2)” value is -2.84 ± 0.46.

Consider “ACATTTGTTGATACTTGGATAAAATGATAATTACACCCATAAATTGATAATTATCACACCCATAAATTGATATTGCCTCTGATCATAGTCAGACCAACATTGCTACGACCCGTATTCGCACCGACAC”, for which the “relative integration efficiency (log2)” value is -0.966 ± 0.23.

For “ACATTTGTTGATACACCCATAAATTGATATTGCCACCCATAAATTGATATTGCTCACAACCATAAGTTGATATTTTCTCTGATCATAGTCAGACCAACATTGCTACGACCCGTATTCGCACCGACAC”, the “relative integration efficiency (log2)” value is -1.05 ± 0.16.

Consider “ACATTTGTTGATACAACCATAAAATGATAATTAATAATTATTTATAATCAGCACACCCATAAATTGATAATTATCACACCCATAAATTGATATTGCCTCTGATCATAGTCAGACCAACATTGCTACG”, for which the “relative integration efficiency (log2)” value was -4.17 ± 0.11.

As to “ACATTTGTTGATACAACCATAAAATGATAATTAATAATTATTTATAATCACACCCATAAATTGATAATTATCACACCCATAAATTGATATTGCCTCTGATCATAGTCAGACCAACATTGCTACGACC”, the “relative integration efficiency (log2)” value is -3.38 ± 0.096.

For “ACATTTGTCGATACAACCATAAAACGATAATTACACCCATAAATGGATCATTATCACACCCAATTTAACTATAACGCTCTGATCATAGTCAGACCAACATTGCTACGACCCGTATTCGCACCGACAC”, the “relative integration efficiency (log2)” value is -1.91 ± 0.19.
